Drawing on patent US7211395 (dated 2007), this text covers Kd for one molecule.

In test [1] the target is T1, bovine serum albumin (bovine, UniProt P02769). The test is described as follows: FP, PBS pH 7.4.
Test [2] has as its target T2, human serum albumin (HSA) (human, UniProt P02768). As to the kind of experiment: FP, pH 7.4, 0.14 M NaCl, 0.1% caprylate.
For test [3], the target named is T2, human serum albumin (HSA). The test is described as follows: FP, pH 6.2, no NaCl.
The target in test [4] is T3, rabbit serum albumin (rabbit, UniProt P49065).
T3 chain: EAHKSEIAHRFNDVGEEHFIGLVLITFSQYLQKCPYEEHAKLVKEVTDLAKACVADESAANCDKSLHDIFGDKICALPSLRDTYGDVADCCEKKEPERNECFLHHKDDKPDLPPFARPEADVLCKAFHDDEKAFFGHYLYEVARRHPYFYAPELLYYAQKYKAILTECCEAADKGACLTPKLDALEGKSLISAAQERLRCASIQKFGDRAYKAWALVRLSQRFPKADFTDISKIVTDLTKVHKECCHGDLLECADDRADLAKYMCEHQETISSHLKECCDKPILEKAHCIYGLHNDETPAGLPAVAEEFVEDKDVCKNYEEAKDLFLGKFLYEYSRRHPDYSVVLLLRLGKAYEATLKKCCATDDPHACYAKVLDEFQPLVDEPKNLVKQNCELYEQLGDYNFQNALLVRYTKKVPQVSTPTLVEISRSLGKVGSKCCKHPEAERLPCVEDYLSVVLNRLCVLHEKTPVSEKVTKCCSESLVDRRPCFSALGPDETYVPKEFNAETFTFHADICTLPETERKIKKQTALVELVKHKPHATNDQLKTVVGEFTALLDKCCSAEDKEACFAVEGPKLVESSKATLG
As to the kind of experiment: FP, PBS pH 7.4.

Test [5] concerns the target T2, human serum albumin (HSA). The test is described as follows: FP, PBS pH 7.4.
The target in test [6] is T4, chicken ovalbumin (chicken, UniProt P01012).
T4 chain: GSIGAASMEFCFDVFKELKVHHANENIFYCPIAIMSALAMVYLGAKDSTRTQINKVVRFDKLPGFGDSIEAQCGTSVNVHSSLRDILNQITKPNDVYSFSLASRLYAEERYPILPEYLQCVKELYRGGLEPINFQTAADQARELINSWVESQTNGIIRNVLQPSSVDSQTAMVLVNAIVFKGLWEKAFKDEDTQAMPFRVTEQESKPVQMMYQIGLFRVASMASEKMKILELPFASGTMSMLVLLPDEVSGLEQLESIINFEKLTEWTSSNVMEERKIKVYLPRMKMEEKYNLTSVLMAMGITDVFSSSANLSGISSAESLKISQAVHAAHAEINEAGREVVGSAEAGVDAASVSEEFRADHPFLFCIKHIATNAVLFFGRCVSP
As to the kind of experiment: FP, PBS pH 7.4.

The target in test [7] is T5, rhesus serum albumin (rhesus macaque, UniProt Q28522).
T5 chain: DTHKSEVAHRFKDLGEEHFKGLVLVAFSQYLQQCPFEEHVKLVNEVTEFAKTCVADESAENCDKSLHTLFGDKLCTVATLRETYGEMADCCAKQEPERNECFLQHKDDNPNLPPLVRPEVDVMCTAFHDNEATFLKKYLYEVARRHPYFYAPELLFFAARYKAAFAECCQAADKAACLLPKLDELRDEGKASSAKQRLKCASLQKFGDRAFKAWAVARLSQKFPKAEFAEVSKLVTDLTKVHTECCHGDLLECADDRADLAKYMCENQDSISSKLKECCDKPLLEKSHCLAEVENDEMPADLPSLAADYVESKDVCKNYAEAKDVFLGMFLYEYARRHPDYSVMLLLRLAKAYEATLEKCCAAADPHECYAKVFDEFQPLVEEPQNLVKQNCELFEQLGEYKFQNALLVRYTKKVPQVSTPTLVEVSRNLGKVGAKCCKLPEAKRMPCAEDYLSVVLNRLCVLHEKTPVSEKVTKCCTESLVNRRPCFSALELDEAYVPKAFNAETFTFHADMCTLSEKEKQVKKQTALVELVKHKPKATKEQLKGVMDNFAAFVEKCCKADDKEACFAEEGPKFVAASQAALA
As to the kind of experiment: FP, pH 6.2, no NaCl.

The target in test [8] is T2, human serum albumin (HSA). The test is described as follows: FP, pH 6.2, no NaCl. The source holds these as a separate data set.
The target in test [9] is T1, bovine serum albumin. As to the kind of experiment: FP, pH 6.2, no NaCl.
Test [10] has as its target T6, pig serum albumin (pig, UniProt P08835).
T6 chain: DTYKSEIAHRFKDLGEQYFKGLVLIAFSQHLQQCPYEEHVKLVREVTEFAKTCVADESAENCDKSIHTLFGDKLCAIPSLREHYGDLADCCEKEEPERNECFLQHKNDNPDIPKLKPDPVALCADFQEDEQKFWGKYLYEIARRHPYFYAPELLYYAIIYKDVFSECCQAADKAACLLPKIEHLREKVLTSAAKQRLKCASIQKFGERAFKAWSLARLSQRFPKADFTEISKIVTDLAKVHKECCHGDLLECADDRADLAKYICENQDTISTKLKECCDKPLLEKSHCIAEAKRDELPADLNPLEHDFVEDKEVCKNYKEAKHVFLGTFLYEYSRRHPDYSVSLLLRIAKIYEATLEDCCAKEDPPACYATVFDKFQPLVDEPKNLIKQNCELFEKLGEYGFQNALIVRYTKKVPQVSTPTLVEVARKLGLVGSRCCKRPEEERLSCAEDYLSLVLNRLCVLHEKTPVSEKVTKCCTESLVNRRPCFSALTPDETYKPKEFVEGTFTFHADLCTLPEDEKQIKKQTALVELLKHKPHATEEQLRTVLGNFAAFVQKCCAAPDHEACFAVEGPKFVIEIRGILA
As to the kind of experiment: FP, pH 6.2, no NaCl.

For test [11], the target named is T4, chicken ovalbumin. As to the kind of experiment: FP, pH 6.2, no NaCl.
Test [12] has as its target mouse serum albumin (mouse, UniProt P07724). As to the kind of experiment: FP, PBS pH 7.4.

T1 sequence (P02769 25-607): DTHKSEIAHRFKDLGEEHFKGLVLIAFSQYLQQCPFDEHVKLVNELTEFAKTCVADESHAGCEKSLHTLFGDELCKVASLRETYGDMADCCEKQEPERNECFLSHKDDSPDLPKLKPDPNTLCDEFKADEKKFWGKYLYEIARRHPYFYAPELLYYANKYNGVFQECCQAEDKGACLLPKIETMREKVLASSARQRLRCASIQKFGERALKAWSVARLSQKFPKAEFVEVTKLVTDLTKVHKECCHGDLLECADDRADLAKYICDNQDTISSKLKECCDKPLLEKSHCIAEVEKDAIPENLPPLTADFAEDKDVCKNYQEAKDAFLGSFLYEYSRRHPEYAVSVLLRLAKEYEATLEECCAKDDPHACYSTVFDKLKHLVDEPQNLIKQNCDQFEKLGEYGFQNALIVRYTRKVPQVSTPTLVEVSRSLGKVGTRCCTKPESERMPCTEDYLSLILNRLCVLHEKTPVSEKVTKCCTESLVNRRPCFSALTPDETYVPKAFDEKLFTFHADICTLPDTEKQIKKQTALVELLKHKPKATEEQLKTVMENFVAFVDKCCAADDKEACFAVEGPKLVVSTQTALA
Chain of mouse serum albumin (P07724 25-608): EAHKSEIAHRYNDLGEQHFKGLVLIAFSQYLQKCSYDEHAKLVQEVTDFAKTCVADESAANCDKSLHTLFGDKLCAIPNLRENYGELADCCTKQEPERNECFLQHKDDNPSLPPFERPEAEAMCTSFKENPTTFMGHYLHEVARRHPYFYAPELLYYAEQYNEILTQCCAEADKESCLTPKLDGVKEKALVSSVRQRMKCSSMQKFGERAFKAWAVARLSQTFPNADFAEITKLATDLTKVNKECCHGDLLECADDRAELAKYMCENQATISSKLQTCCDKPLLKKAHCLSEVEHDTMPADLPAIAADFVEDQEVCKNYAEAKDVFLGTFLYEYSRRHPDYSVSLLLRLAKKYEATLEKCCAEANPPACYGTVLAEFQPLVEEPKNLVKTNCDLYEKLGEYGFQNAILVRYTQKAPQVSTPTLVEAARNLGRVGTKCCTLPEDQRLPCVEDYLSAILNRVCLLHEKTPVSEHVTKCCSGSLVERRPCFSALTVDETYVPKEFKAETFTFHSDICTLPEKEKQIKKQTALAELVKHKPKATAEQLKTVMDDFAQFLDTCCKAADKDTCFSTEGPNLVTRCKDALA

B1: DX-321 (peptide)
chain: AEGTGDRNMCKFSWIRSPAFCARADPEXK
modifications: disulfide cyclic, N-acetyl, C-amide, X = 6-aminohexanoic acid, fluorescein on Lys
Regarding B1, the Kd (as a rule, the free concentration of one partner at which half of the binding sites on the other are occupied at equilibrium, for simple one-to-one binding) in test [1] was above 200 µM; in test [2], 75 µM; in [3], 0.9 µM; in test [4], above 200 µM; in test [5], 84 µM; in test [6], above 200 µM. In addition, the Kd is 38 µM in test [7]; 0.9 µM in [8]; 21 µM in [9]; 21 µM in test [10]; above 200 µM in [11]; above 200 µM in test [12].
